{"source": "paper PMC2871011", "target": "low-molecular-weight fibrinogen fraction I-9 isolated from plasma (human) (UniProt P02671)", "experiment": "co-purification", "data": [{"substance": "latent TGF-β1 (TGF-β1 with its latency-associated protein) (from UniProt P01137 30-278) (complex)", "values": [{"measurement": "fold less latent TGF-β than in fraction I-2", "result": 8, "unit": "fold"}]}]}
